By Kd is commonly meant a measure of binding affinity in units of concentration.

The target of test [1] is mannose-6-phosphate (M6P) receptor. Put plainly: M6P receptor affinity column (Affi-Gel 15): 6 ug GALNS loaded, eluted with a mannose-6-phosphate gradient, quantified by GALNS ELISA. For orientation: ELISA stands for enzyme-linked immunosorbent assay.
Test [2] shares this target. The test is described as follows: M6P receptor plate binding assay: plates coated with 4 ug/mL M6P receptor, GALNS 0.16-10 nM, bound enzyme read by 4MU-Gal-6S activity, single-site fit.
Test [3] has the same target. Put plainly: M6P receptor plate binding assay (receptor-coated plate, bound enzyme read by activity).

B1: recombinant human N-acetylgalactosamine-6-sulfatase (GALNS) produced from G71S clone 4 (enzyme)
chain: APQPPNILLLLMDDMGWGDLGVYGEPSRETPNLDRMAAEGLLFPNFYSANPLCSPSRAALLTGRLPIRNGFYTTNAHARNAYTPQEIVGGIPDSEQLLPELLKKAGYVSKIVGKWHLGHRPQFHPLKHGFDEWFGSPNCHFGPYDNKARPNIPVYRDWEMVGRYYEEFPINLKTGEANLTQIYLQEALDFIKRQARHHPFFLYWAVDATHAPVYASKPFLGTSQRGRYGDAVREIDDSIGKILELLQDLHVADNTFVFFTSDNGAALISAPEQGGSNGPFLCGKQTTFEGGMREPALAWWPGHVTAGQVSHQLGSIMDLFTTSLALAGLTPPSDRAIDGLNLLPTLLQGRLMDRPIFYYRGDTLMAATLGQHKAHFWTWTNSWENFRQGIDFCPGQNVSGVTTHNLEDHTKLPLIFHLGRDPGERFPLSFASAEYQEALSRITSVVQQHQEALVPAQPQLNVCNWAVMNWAPPGCEKLGKCLTPPESIPKKCLWSH
modifications: Cys at position 53 of the precursor (position 79 of SEQ ID NO:4) converted to Calpha-formylglycine (FGly), about 90%; N-linked glycans at Asn178 (bis-phosphorylated mannose 7, BPM7) and Asn397 (oligomannose-type), numbered on the secreted polypeptide
B1 had an M6P Receptor Column Binding: % Bound in test [1] of 56%. The molecule further displayed a Kd in test [2] of 2.4 nM.

B2: recombinant human N-acetylgalactosamine-6-sulfatase (GALNS) produced from G71S clone C2 (enzyme)
chain: B1 chain
modifications: active site Cys at position 53 of the precursor (position 79 of SEQ ID NO:4) converted to Calpha-formylglycine (percent not printed for this clone); N-linked glycans at Asn178 and Asn397, bis-phosphorylated oligomannose 0.69 mol/mol
On to B2, for which, in test [3], the Kd came to 5.7 nM.
